Patent US8461305B2, “L-fucose α1→6 specific lectin” (J-Oil Mills, Inc., priority 2008, dated 2013)

T1: Invertase (yeast) (Saccharomyces cerevisiae, UniProt P00724)
T1 sequence (P00724 20-532): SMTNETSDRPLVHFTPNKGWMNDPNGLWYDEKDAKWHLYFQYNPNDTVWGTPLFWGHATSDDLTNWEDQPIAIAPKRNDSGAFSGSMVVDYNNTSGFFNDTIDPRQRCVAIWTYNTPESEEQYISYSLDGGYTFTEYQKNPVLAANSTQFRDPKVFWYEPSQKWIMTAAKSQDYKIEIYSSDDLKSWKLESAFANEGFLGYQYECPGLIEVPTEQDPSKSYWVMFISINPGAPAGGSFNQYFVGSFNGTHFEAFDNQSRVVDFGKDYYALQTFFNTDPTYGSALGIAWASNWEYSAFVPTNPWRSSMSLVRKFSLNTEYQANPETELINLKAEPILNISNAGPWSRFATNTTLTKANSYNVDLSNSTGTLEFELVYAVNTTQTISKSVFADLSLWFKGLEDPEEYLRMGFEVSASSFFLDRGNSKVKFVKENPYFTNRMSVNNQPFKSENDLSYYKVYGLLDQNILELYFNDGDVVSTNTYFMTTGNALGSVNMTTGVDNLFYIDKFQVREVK


What was measured:
Assay in all cases: detection of glycoprotein by Western blotting with biotin-labeled lectin
Type in all cases: binding
Set-up in all cases: key: ◯: Detected; X: Not detected
[1] = molecular target: Blood serum albumin (bovine) (Bos taurus, UniProt P02769); settings: (O) Blood serum albumin (bovine), No sugar chain; biotin-labeled lectin 2 μg/ml
Description: (§1) PTL of Example 1, SRL of Example 2, AAL of Comparison Example 1, AOL of Comparison Example 2, and LCA of Comparison Example 3 all subjected to biotin-labeling.
(§2) Lectin was measured and was dissolved in 0.1 M sodium hydrogen carbonate solution (5 mg/ml). Then, a biotinylation reagent was dissolved in dimethyl sulfoxide and the resultant solution was added to lectin solution to cause reaction therebetween. Then, the reactant was […] and lyophilized, thereby obtain biotin-labeled lectin.
(§3) The solution obtained by dissolving the glycoprotein sample in 10 mM phosphate buffered saline (pH 7.4, PBS) at 2 mg/ml was dispensed to a microtube by a unit of 18 μl. 6 μl of SDS process liquid (Sample Buffer Solution (2ME−); Wako Pure Chemical Industries, Ltd.) and 1.25 μl of 2-mercaptoethanol (Bio-Rad Laboratories, Inc.) was added to each dispensed fluid and the resultant mixture was boiled for 5 minutes.
(§4) The film was immersed in 10 mM Tris buffer solution including 0.8% NaCl added with 1% BSA (pH 7.4, 1% BSA+TBS) and was shaken at a room temperature for one hour. Then, the film was cleaned three times by 10 mM Tris buffer solution (pH 7.4, TBS) including 0.8% NaCl. Then, the film was immersed in biotin-labeled lectin solution (2 μg/ml) and was shaken at a room temperature for one hour. Then, the film was cleaned three times by TBS. Then, the film was immersed in the HRP label streptavidin solution at 1 μg/ml (Vector Laboratories) and was shaken at a room temperature for 30 minutes. After the film was cleaned three times by TBS, a POD immunostain set (Wako Pure Chemical Industries, Ltd.) was used to perform a staining test. The staining test is to detect glycoprotein by the western blotting using biotin-labeled lectin. FIG. 13 to FIG. 17 are photographs showing the following glycoproteins stained by PTL (FIG. 13), SRL (FIG. 14), AAL (FIG. 15), AOL (FIG. 16), or LCA (FIG. 17).
(§5) In FIG. 13 to FIG. 17, the lanes 0 to 6 correspond to the followings. Lane 1: thyroglobulin, lane 2: lactoferrin, lane 3: immune immunoglobulin, lane 4: transferrin, lane 5: α1-acidic glycoprotein, lane 6: invertase, lane 0: bovine serum albumin (control)

[2] = system: Immune-globulin G (human); settings: (3) Immune-globulin G (human), N-linked glycan having α1→6 L-fucose; biotin-labeled lectin 2 μg/ml
Description: as §1, §2, §3, §4, §5

Invertase (yeast) = molecular target: T1, Invertase (yeast); settings: (6) Invertase (yeast), High mannose-type sugar chain; biotin-labeled lectin 2 μg/ml
Description: as §1, §2, §3, §4, §5

Lactoferrin (bovine) = Lactoferrin (bovine) (Bos taurus, UniProt P24627); settings: (2) Lactoferrin (bovine), N-linked glycan having α1→6 L-fucose; biotin-labeled lectin 2 μg/ml
Description: as §1, §2, §3, §4, §5

Thyroglobulin (pig) = Thyroglobulin (pig) (Sus scrofa, UniProt F1RRV3); settings: (1) Thyroglobulin (pig), N-linked glycan having α1→6 L-fucose; biotin-labeled lectin 2 μg/ml
Description: as §1, §2, §3, §4, §5

Transferrin (human) = Transferrin (human) (Homo sapiens, UniProt P02787); settings: (4) Transferrin (human), N-linked glycan not including α1→6 L-fucose; biotin-labeled lectin 2 μg/ml
Description: as §1, §2, §3, §4, §5

[3] = system: α1-acidic glycoprotein (human); settings: (5) α1-acidic glycoprotein (human), N-linked glycan having α1→3 L-fucose; biotin-labeled lectin 2 μg/ml
Description: as §1, §2, §3, §4, §5

Sequence of Transferrin (human) (P02787 20-698): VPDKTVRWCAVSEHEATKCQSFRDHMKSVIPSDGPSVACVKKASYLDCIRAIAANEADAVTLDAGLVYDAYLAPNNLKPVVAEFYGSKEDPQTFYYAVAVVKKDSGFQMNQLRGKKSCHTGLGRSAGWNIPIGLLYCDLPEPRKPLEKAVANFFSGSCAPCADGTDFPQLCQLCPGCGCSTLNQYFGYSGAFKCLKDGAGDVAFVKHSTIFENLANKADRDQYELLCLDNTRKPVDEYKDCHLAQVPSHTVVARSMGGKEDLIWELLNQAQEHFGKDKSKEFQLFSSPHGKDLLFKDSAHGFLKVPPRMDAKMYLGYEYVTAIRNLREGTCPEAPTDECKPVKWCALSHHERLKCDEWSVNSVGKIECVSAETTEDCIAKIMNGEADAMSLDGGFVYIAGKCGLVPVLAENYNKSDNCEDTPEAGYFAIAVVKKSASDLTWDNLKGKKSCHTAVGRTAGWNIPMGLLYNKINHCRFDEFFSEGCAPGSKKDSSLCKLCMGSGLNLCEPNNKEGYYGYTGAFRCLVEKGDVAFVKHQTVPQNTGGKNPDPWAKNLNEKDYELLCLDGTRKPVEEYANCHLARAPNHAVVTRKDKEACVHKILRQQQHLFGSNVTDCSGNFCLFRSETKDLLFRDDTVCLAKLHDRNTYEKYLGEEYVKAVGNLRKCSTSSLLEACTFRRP
Sequence of Blood serum albumin (bovine) (P02769 25-607): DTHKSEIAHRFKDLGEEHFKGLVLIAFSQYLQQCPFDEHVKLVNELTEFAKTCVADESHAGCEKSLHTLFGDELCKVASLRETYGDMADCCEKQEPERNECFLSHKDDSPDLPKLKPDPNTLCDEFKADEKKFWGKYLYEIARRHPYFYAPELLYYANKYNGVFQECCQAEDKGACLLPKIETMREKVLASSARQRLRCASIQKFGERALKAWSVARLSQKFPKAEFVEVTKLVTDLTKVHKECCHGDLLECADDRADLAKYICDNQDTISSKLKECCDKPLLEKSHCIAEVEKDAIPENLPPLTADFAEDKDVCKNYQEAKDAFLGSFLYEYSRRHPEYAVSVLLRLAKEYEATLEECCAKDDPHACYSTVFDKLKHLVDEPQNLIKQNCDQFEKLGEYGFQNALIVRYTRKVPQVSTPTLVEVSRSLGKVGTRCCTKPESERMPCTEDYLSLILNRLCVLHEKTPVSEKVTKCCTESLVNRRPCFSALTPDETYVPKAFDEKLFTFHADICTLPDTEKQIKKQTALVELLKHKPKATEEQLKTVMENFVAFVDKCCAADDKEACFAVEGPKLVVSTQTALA
Sequence of Thyroglobulin (pig) (F1RRV3 20-2692): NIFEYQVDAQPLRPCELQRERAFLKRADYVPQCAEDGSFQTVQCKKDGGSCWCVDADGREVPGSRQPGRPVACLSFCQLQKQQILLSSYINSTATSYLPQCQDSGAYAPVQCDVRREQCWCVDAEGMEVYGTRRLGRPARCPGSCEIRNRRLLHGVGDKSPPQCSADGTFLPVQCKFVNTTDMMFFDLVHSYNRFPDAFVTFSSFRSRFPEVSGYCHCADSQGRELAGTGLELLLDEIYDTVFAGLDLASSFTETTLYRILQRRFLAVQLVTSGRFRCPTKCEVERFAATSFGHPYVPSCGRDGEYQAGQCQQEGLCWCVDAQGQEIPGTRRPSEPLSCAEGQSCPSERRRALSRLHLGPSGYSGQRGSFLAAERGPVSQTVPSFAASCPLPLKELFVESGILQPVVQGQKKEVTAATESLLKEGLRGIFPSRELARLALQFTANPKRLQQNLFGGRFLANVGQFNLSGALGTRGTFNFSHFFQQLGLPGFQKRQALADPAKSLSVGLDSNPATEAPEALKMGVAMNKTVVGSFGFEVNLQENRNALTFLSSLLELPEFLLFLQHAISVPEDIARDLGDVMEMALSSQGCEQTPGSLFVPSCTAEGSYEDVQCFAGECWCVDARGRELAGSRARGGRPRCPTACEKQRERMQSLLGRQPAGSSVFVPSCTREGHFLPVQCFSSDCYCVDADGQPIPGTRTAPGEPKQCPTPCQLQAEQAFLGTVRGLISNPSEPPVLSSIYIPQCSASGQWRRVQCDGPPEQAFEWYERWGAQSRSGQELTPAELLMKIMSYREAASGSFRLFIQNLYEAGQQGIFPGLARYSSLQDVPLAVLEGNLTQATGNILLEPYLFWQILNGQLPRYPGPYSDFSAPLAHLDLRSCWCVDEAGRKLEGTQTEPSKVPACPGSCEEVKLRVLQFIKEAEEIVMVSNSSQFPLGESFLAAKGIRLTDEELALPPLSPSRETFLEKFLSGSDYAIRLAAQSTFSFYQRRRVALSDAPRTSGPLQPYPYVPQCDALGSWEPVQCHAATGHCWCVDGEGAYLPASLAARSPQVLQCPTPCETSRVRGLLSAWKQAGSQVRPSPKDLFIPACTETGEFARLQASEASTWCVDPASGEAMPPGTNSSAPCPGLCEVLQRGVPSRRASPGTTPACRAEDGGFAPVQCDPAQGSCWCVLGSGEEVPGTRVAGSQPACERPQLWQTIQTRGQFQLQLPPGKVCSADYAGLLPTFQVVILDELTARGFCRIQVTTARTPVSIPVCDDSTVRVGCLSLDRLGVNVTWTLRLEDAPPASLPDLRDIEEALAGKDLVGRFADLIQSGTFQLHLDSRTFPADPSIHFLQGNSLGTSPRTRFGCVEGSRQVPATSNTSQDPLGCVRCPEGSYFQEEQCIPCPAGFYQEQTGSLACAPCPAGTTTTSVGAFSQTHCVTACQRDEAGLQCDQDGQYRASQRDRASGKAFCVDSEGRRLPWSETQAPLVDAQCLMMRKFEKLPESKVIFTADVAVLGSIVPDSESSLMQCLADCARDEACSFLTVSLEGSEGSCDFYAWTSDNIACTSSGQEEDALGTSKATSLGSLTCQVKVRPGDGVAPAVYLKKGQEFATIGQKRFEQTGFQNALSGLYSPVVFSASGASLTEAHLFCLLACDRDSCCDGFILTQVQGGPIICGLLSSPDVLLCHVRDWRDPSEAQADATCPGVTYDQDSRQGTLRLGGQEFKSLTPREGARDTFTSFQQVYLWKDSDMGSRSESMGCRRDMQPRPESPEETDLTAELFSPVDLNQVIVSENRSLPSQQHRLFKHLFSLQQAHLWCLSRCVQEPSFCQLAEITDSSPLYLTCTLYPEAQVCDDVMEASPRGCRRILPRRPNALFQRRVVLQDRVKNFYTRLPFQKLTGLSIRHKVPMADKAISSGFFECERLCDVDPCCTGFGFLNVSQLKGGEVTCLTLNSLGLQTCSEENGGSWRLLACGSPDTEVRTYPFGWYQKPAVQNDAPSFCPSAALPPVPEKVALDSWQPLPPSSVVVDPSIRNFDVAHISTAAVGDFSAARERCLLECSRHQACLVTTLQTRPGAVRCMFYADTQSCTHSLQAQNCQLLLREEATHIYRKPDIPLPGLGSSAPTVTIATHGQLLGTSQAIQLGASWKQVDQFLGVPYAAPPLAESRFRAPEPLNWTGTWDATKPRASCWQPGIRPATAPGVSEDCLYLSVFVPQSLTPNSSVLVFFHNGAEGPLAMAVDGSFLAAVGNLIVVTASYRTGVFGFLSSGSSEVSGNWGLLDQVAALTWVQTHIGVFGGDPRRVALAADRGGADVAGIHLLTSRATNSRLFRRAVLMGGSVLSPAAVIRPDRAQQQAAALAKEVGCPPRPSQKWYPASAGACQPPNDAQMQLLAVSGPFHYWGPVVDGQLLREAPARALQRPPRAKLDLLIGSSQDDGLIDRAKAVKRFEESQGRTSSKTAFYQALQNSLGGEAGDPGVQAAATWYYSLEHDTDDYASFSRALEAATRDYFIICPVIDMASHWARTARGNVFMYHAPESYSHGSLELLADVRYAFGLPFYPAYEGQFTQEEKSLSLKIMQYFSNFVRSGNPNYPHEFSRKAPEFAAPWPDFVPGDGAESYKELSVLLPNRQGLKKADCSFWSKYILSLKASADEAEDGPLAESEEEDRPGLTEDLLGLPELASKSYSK
Sequence of Lactoferrin (bovine) (P24627 20-708): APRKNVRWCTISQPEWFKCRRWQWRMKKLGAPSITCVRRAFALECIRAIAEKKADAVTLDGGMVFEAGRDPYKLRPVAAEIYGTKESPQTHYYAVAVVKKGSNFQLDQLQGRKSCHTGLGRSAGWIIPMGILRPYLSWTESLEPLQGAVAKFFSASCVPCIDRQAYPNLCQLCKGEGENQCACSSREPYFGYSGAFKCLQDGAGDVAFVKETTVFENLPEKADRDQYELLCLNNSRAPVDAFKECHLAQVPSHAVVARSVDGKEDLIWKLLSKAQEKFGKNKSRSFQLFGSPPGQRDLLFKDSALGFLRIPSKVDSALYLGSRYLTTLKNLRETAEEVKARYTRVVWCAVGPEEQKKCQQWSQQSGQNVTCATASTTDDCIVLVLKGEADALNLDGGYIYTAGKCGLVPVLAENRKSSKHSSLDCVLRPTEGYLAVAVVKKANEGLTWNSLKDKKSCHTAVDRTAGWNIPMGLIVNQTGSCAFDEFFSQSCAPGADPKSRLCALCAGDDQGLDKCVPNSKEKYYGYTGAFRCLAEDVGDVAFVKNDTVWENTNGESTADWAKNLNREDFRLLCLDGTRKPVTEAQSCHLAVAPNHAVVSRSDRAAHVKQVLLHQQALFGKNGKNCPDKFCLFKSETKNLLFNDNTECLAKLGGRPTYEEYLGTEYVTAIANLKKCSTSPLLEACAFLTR

| Molecule | detection of glycoprotein by Western blotting [1] | detection of glycoprotein by Western blotting [2] | detection of glycoprotein by Western blotting (Invertase (yeast)) | detection of glycoprotein by Western blotting (Lactoferrin (bovine)) | detection of glycoprotein by Western blotting (Thyroglobulin (pig)) | detection of glycoprotein by Western blotting (Transferrin (human)) | detection of glycoprotein by Western blotting [3] |
| --- | --- | --- | --- | --- | --- | --- | --- |
| Aspergillus oryzae lectin [AOL, reference compound] | X | ◯ | X | ◯ | ◯ | X | X |
| Pholiota terrestris lectin [PTL, novel L-fucose α1→6 specific lectin purified from the mushroom Pholiota terrestris] | X | ◯ | X | ◯ | ◯ | X | X |
| Stropharia rugosoannulata lectin [SRL, novel L-fucose α1→6 specific lectin purified from the mushroom Stropharia rugosoannulata] | X | ◯ | X | ◯ | ◯ | X | X |
| Aleuria aurantia lectin (protein) PTEFLYTSKIAAISWAATGGRQQRVYFQDLNGKIREAQRGGDNPWTGGSSQNVIGEAKLFSPLAAVTWKSAQGIQIRVYCVNKDNILSEFVYDGSKWITGQLGSVGVKVGSNSKLAALQWGGSESAPPNIRVYYQKSNGSGSSIHEYVWSGKWTAGASFGSTVPGTGIGATAIGPGRLRIYYQATDNKIREHCWDSNSWYVGGFSASASAGVSIAAISWGSTPNIRVYWQKGREELYEAAYGGSWNTPGQIKDASRPTPSLPDTFIAANSSGNIDISVFFQASGVSLQQWQWISGKGWSIGAVVPTGTPAGW | X | ◯ | X | ◯ | ◯ | X | X |
| Lens culinaris agglutinin (protein) chain 1: TETTSFSITKFSPDQKNLIFQGDGYTTKGKLTLTKAVKSTVGRALYSTPIHIWDRDTGNVANFVTSFTFVIDAPSSYNVADEFTFFIAPVDTKPQTGGGYLGVFNSKEYDKTSQTVAVEFDTFYNAAWDPSNKERHIGIDVNSIKSVNTKSWNLQNGERANVVIAFNAATNVLTVTLTYP chain 2: VTSYTLNEVVPLKDVVPEWVRIGFSATTGAEFAAHEVHSWSFHSELGGTSSS | X | ◯ | ◯ | ◯ | ◯ | X | X |
